Test results: paper PMC9482650, “Quantitative fragmentomics allow affinity mapping of interactomes” (Nature Communications, 2022)

These binders were tested against T1, APBA1_1, Q02410 (assay: holdup assay). Settings: plain residues with an end cap or a label only (N-terminal biotin on a linker: ado-ado).
T1 sequence (Q02410 651-752, limits assumed, looked up): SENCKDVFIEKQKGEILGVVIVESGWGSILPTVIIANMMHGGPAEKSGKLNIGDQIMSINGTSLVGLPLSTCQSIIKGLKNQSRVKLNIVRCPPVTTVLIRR
Design: key: below the threshold = too weak to quantify, mostly under pKd 3.1 to 4
With LPPPESESKV [KCNJ9, Q92806] the pKd was “below the threshold”.

These binders were tested against T2, APBA1_2, Q02410 (assay: holdup assay). Settings: plain residues with an end cap or a label only (N-terminal biotin on a linker: ado-ado).
T2 sequence (Q02410 742-832, limits assumed, looked up): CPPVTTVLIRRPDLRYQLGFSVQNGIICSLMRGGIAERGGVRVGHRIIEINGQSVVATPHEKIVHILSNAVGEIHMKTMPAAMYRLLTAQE
Design: key: below the threshold = too weak to quantify, mostly under pKd 3.1 to 4
For LPPPESESKV [KCNJ9, Q92806], the pKd was “below the threshold”.

Each binder was assayed against T3, ARHGAP21, Q5T5U3 (assay: holdup assay). Settings: plain residues with an end cap or a label only (N-terminal biotin on a linker: ado-ado).
T3 sequence (Q5T5U3 45-169, limits assumed, looked up): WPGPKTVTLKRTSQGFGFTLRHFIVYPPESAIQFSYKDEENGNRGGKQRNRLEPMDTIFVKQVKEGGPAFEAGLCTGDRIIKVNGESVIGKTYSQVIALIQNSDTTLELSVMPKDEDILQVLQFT
Design: key: below the threshold = too weak to quantify, mostly under pKd 3.1 to 4
In the case of LPPPESESKV [KCNJ9, Q92806], the pKd is reported as “below the threshold”.

What follows are binders tested against T4, ARHGEF11, O15085 (assay: holdup assay). Settings: plain residues with an end cap or a label only (N-terminal biotin on a linker: ado-ado).
T4 sequence (O15085 42-136, limits assumed, looked up): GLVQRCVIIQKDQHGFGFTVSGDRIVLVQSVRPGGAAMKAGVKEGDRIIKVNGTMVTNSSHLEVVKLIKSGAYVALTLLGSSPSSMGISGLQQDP
Design: key: below the threshold = too weak to quantify, mostly under pKd 3.1 to 4
For LPPPESESKV [KCNJ9, Q92806], the pKd was “below the threshold”.

What follows are binders tested against DLG2_3, Q15700 (assay: holdup assay). Settings: plain residues with an end cap or a label only (N-terminal biotin on a linker: ado-ado).
Design: key: below the threshold = too weak to quantify, mostly under pKd 3.1 to 4
Binder LPPPESESKV [KCNJ9, Q92806] has a pKd of 3.7.

The binders below were run against DLG4_1, P78352 (assay: holdup assay). Settings: plain residues with an end cap or a label only (N-terminal biotin on a linker: ado-ado).
Chain of DLG4_1, P78352 (P78352 62-152): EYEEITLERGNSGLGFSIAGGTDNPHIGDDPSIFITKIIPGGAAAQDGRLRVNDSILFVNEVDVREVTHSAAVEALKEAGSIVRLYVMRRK
Design: key: below the threshold = too weak to quantify, mostly under pKd 3.1 to 4
With LPPPESESKV [KCNJ9, Q92806] the pKd was “below the threshold”.

What follows are binders tested against FRMPD2_1, Q68DX3 (assay: holdup assay). Settings: plain residues with an end cap or a label only (N-terminal biotin on a linker: ado-ado).
Chain of FRMPD2_1, Q68DX3 (Q68DX3 770-861): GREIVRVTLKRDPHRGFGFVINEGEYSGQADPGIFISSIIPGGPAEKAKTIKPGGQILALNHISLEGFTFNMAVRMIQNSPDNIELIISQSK
Design: key: below the threshold = too weak to quantify, mostly under pKd 3.1 to 4
LPPPESESKV [KCNJ9, Q92806] was tested, and the pKd was “below the threshold”.

These binders were tested against FRMPD2_2, Q68DX3 (assay: holdup assay). Settings: plain residues with an end cap or a label only (N-terminal biotin on a linker: ado-ado).
Chain of FRMPD2_2, Q68DX3 (Q68DX3 944-1038): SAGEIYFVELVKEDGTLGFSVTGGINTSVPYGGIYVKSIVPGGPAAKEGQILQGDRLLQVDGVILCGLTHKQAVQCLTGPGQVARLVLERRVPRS
Design: key: below the threshold = too weak to quantify, mostly under pKd 3.1 to 4
LPPPESESKV [KCNJ9, Q92806] gave a pKd of 3.56.

What follows are binders tested against GRID2IP_1, A4D2P6 (assay: holdup assay). Settings: plain residues with an end cap or a label only (N-terminal biotin on a linker: ado-ado).
Chain of GRID2IP_1, A4D2P6 (A4D2P6 1-87): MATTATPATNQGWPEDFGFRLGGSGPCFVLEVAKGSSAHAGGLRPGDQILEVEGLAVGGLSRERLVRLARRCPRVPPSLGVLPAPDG
Design: key: below the threshold = too weak to quantify, mostly under pKd 3.1 to 4
With LPPPESESKV [KCNJ9, Q92806] the pKd was “below the threshold”.

These binders were tested against Inadl_2, Q8NI35 (assay: holdup assay). Settings: plain residues with an end cap or a label only (N-terminal biotin on a linker: ado-ado).
Chain of Inadl_2, Q8NI35 (Q8NI35 238-335): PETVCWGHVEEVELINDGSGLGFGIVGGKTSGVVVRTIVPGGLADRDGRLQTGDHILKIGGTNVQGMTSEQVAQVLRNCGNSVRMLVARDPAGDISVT
Design: key: below the threshold = too weak to quantify, mostly under pKd 3.1 to 4
In the case of LPPPESESKV [KCNJ9, Q92806], the pKd is reported as “below the threshold”.

The binders below were run against Inadl_4, Q8NI35 (assay: holdup assay). Settings: plain residues with an end cap or a label only (N-terminal biotin on a linker: ado-ado).
Chain of Inadl_4, Q8NI35 (Q8NI35 547-651): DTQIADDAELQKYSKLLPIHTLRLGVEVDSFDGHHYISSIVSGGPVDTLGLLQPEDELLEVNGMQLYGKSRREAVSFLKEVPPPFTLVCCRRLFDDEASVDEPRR
Design: key: below the threshold = too weak to quantify, mostly under pKd 3.1 to 4
LPPPESESKV [KCNJ9, Q92806] was tested, and the pKd was “below the threshold”.

Each binder was assayed against Inadl_8, Q8NI35 (assay: holdup assay). Settings: plain residues with an end cap or a label only (N-terminal biotin on a linker: ado-ado).
Chain of Inadl_8, Q8NI35 (Q8NI35 1425-1530): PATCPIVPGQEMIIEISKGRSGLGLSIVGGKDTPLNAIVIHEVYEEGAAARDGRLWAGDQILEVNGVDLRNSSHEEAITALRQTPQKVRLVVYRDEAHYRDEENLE
Design: key: below the threshold = too weak to quantify, mostly under pKd 3.1 to 4
With LPPPESESKV [KCNJ9, Q92806] the pKd was “below the threshold”.

The binders below were run against LDB3, O75112 (assay: holdup assay). Settings: plain residues with an end cap or a label only (N-terminal biotin on a linker: ado-ado).
Chain of LDB3, O75112 (O75112 1-94): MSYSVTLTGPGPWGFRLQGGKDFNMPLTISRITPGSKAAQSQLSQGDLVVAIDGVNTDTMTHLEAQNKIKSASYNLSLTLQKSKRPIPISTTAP
Design: key: below the threshold = too weak to quantify, mostly under pKd 3.1 to 4
For LPPPESESKV [KCNJ9, Q92806], the pKd was “below the threshold”.

The binders below were run against T5, LIN7C, Q9NUP9 (assay: holdup assay). Settings: plain residues with an end cap or a label only (N-terminal biotin on a linker: ado-ado).
T5 sequence (Q9NUP9 88-185, limits assumed, looked up): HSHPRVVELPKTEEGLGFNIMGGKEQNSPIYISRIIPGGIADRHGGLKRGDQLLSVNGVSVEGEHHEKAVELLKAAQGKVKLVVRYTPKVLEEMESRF
Design: key: below the threshold = too weak to quantify, mostly under pKd 3.1 to 4
In the case of LPPPESESKV [KCNJ9, Q92806], the pKd is reported as “below the threshold”.

What follows are binders tested against T6, LNX2_3, Q8N448 (assay: holdup assay). Settings: plain residues with an end cap or a label only (N-terminal biotin on a linker: ado-ado).
T6 sequence (Q8N448 463-564, limits assumed, looked up): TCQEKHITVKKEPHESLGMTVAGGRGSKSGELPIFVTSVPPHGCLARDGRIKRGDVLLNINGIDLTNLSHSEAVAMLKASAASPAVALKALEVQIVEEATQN
Design: key: below the threshold = too weak to quantify, mostly under pKd 3.1 to 4
For LPPPESESKV [KCNJ9, Q92806], the pKd was “below the threshold”.

The binders below were run against T7, LRRC7, Q96NW7 (assay: holdup assay). Settings: plain residues with an end cap or a label only (N-terminal biotin on a linker: ado-ado).
T7 sequence (Q96NW7 1440-1537, limits assumed, looked up): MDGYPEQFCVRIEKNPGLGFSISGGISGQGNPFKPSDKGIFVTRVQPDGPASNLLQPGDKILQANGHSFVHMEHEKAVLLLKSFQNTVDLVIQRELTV
Design: key: below the threshold = too weak to quantify, mostly under pKd 3.1 to 4
For LPPPESESKV [KCNJ9, Q92806], the pKd was “below the threshold”.

The binders below were run against MAGI2_3, Q86UL8 (assay: holdup assay). Settings: plain residues with an end cap or a label only (N-terminal biotin on a linker: ado-ado).
Chain of MAGI2_3, Q86UL8 (Q86UL8 600-682): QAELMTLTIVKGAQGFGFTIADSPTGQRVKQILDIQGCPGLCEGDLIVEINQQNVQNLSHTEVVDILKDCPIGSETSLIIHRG
Design: key: below the threshold = too weak to quantify, mostly under pKd 3.1 to 4
LPPPESESKV [KCNJ9, Q92806] gave a pKd of 3.64.

Each binder was assayed against MAGI2_4, Q86UL8 (assay: holdup assay). Settings: plain residues with an end cap or a label only (N-terminal biotin on a linker: ado-ado).
Chain of MAGI2_4, Q86UL8 (Q86UL8 772-865): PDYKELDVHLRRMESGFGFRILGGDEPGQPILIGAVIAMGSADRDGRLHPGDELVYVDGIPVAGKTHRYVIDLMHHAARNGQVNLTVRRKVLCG
Design: key: below the threshold = too weak to quantify, mostly under pKd 3.1 to 4
With LPPPESESKV [KCNJ9, Q92806] the pKd was “below the threshold”.

Each binder was assayed against MAGI3_2, Q5TCQ9 (assay: holdup assay). Settings: plain residues with an end cap or a label only (N-terminal biotin on a linker: ado-ado).
Chain of MAGI3_2, Q5TCQ9 (Q5TCQ9 398-503): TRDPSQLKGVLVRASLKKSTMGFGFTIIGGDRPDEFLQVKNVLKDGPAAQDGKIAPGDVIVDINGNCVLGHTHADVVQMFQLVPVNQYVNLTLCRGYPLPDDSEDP
Design: key: below the threshold = too weak to quantify, mostly under pKd 3.1 to 4
Work on LPPPESESKV [KCNJ9, Q92806] yielded a pKd of 4.

What follows are binders tested against NHERF4_1, Q86UT5-2 (assay: holdup assay). Settings: plain residues with an end cap or a label only (N-terminal biotin on a linker: ado-ado).
Chain of NHERF4_1, Q86UT5-2 (Q86UT5 other isoform, or with tags, fused parts or gaps): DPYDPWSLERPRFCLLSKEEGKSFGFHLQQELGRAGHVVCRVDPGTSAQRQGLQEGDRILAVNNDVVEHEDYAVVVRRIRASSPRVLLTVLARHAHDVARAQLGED
Design: key: below the threshold = too weak to quantify, mostly under pKd 3.1 to 4
LPPPESESKV [KCNJ9, Q92806] was tested, and the pKd was “below the threshold”.

These binders were tested against NHERF4_2, Q86UT5 (assay: holdup assay). Settings: plain residues with an end cap or a label only (N-terminal biotin on a linker: ado-ado).
Chain of NHERF4_2, Q86UT5 (Q86UT5 220-308): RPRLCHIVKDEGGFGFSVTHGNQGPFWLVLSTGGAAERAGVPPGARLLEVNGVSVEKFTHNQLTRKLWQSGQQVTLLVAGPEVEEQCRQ
Design: key: below the threshold = too weak to quantify, mostly under pKd 3.1 to 4
For LPPPESESKV [KCNJ9, Q92806], the pKd was “below the threshold”.

What follows are binders tested against PARD3_3, Q8TEW0 (assay: holdup assay). Settings: plain residues with an end cap or a label only (N-terminal biotin on a linker: ado-ado).
Chain of PARD3_3, Q8TEW0 (Q8TEW0 582-685): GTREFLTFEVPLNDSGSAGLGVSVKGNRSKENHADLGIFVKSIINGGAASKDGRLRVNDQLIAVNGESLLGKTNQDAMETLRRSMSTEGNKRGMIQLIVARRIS
Design: key: below the threshold = too weak to quantify, mostly under pKd 3.1 to 4
For LPPPESESKV [KCNJ9, Q92806], the pKd was “below the threshold”.

These binders were tested against PDLIM1, O00151 (assay: holdup assay). Settings: plain residues with an end cap or a label only (N-terminal biotin on a linker: ado-ado).
Chain of PDLIM1, O00151 (O00151 1-87): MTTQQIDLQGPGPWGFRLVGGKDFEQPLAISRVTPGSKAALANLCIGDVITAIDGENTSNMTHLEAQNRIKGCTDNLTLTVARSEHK
Design: key: below the threshold = too weak to quantify, mostly under pKd 3.1 to 4
With LPPPESESKV [KCNJ9, Q92806] the pKd was “below the threshold”.

These binders were tested against PTPN3, P26045 (assay: holdup assay). Settings: plain residues with an end cap or a label only (N-terminal biotin on a linker: ado-ado).
Chain of PTPN3, P26045 (P26045 505-587): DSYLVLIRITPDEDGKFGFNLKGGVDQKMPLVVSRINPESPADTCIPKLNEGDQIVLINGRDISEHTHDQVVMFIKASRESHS
Design: key: below the threshold = too weak to quantify, mostly under pKd 3.1 to 4
LPPPESESKV [KCNJ9, Q92806] showed a pKd of 4.4.

These binders were tested against T8, RAPGEF6, Q8TEU7 (assay: holdup assay). Settings: plain residues with an end cap or a label only (N-terminal biotin on a linker: ado-ado).
T8 sequence (Q8TEU7 525-625, limits assumed, looked up): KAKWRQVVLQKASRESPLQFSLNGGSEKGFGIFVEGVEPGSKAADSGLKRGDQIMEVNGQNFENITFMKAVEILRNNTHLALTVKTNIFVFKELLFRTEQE
Design: key: below the threshold = too weak to quantify, mostly under pKd 3.1 to 4
With LPPPESESKV [KCNJ9, Q92806] the pKd was “below the threshold”.

These binders were tested against SCRIB_2, Q14160 (assay: holdup assay). Settings: plain residues with an end cap or a label only (N-terminal biotin on a linker: ado-ado).
Chain of SCRIB_2, Q14160 (Q14160 857-960): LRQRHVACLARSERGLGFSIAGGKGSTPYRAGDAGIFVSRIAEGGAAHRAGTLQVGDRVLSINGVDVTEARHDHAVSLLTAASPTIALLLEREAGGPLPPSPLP
Design: key: below the threshold = too weak to quantify, mostly under pKd 3.1 to 4
For LPPPESESKV [KCNJ9, Q92806], the pKd was “below the threshold”.

These binders were tested against T9, SHANK1, Q9Y566 (assay: holdup assay). Settings: plain residues with an end cap or a label only (N-terminal biotin on a linker: ado-ado).
T9 sequence (Q9Y566 658-767, limits assumed, looked up): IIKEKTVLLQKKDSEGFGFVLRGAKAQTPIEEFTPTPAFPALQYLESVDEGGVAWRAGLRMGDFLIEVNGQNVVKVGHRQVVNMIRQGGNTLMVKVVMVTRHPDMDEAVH
Design: key: below the threshold = too weak to quantify, mostly under pKd 3.1 to 4
LPPPESESKV [KCNJ9, Q92806] was tested, and the pKd was “below the threshold”.

These binders were tested against T10, TJP3_3, O95049 (assay: holdup assay). Settings: plain residues with an end cap or a label only (N-terminal biotin on a linker: ado-ado).
T10 sequence (O95049 375-456, limits assumed, looked up): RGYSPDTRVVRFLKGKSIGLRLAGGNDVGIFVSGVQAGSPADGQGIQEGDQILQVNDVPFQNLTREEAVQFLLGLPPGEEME
Design: key: below the threshold = too weak to quantify, mostly under pKd 3.1 to 4
With LPPPESESKV [KCNJ9, Q92806] the pKd was “below the threshold”.
